From article PMC8886817

Experiments:
[1] = target: Rabbit skeletal muscle actin (RMA), as actin filaments (F-actin) (rabbit) (UniProt P68135); assay: single-molecule microfluidics-assisted TIRF
[2] = target: GST-549-SNAP-N-IQGAP1 (GST-SNAP-N-IQGAP1-6His, 1–522) (UniProt P46940); assay: single-molecule step photobleaching
[3] = target: Rabbit skeletal muscle actin (RMA), as actin filaments (F-actin) (rabbit) (UniProt P68135); assay: open-flow TIRF microscopy of single filament growth

Row | average dwell time on filament sides [1] [min] | koff [1] [s⁻¹] | stoichiometry N [2] | average pause time [3] [s] | Substance
1 | 6.8 | 0.0025 | 2 |  | GST-549-SNAP-N-IQGAP1 (GST-SNAP-N-IQGAP1-6His, 1–522) (from UniProt P46940 1-522) (domain or fragment)
2 |  |  |  | 14.7 | GST-C-IQGAP1 (675–1657) (from UniProt P46940 675-1657) (domain or fragment)
